Paper PMC5436847

How the values were obtained:
[1] = tested on: P34 N-terminus-RRM1 (lacks RRM2 and C-terminus) (Trypanosoma brucei); assay: filter binding; conditions: Filter binding: 10 mM Tris pH 7.4, 1 mM EDTA, 100 mM NaCl, 100 ug/ml BSA, 30 min, room temperature; 0.05 nM 5S rRNA, 0-300 nM protein; Bmax fixed at 100%
[2] = tested on: P34 N-terminus-RRM1-RRM2 (lacks C-terminus) (Trypanosoma brucei); assay: filter binding; conditions: Filter binding: 10 mM Tris pH 7.4, 1 mM EDTA, 100 mM NaCl, 100 ug/ml BSA, 30 min, room temperature; 0.05 nM 5S rRNA, 0-300 nM protein; Bmax fixed at 100%
[3] = tested on: P34 RRM2 (Trypanosoma brucei); assay: filter binding; conditions: Filter binding: 10 mM Tris pH 7.4, 1 mM EDTA, 100 mM NaCl, 100 ug/ml BSA, 30 min, room temperature; 0.05 nM 5S rRNA, 0-300 nM protein; Bmax fixed at 100%
[4] = tested on: P34 Y60A (Trypanosoma brucei); assay: filter binding; conditions: Filter binding: 10 mM Tris pH 7.4, 1 mM EDTA, 100 mM NaCl, 100 ug/ml BSA, 30 min, room temperature; 0.05 nM 5S rRNA, 0-300 nM protein; Bmax fixed at 100%
[5] = tested on: P34 F141A (Trypanosoma brucei); assay: filter binding; conditions: Filter binding: 10 mM Tris pH 7.4, 1 mM EDTA, 100 mM NaCl, 100 ug/ml BSA, 30 min, room temperature; 0.05 nM 5S rRNA, 0-300 nM protein; Bmax fixed at 100%
[6] = tested on: P34 R91A, Y92A (Trypanosoma brucei); assay: filter binding; conditions: Filter binding: 10 mM Tris pH 7.4, 1 mM EDTA, 100 mM NaCl, 100 ug/ml BSA, 30 min, room temperature; 0.05 nM 5S rRNA, 0-300 nM protein; Bmax fixed at 100%
[7] = tested on: P34 Y92A (Trypanosoma brucei); assay: filter binding; conditions: Filter binding: 10 mM Tris pH 7.4, 1 mM EDTA, 100 mM NaCl, 100 ug/ml BSA, 30 min, room temperature; 0.05 nM 5S rRNA, 0-300 nM protein; Bmax fixed at 100%
[8] = tested on: P34 full length (WT) (Trypanosoma brucei); assay: filter binding; conditions: Filter binding: 10 mM Tris pH 7.4, 1 mM EDTA, 100 mM NaCl, 100 ug/ml BSA, 30 min, room temperature; 0.05 nM 5S rRNA, 0-300 nM protein; Bmax fixed at 100%
[9] = tested on: P34 Y174A (Trypanosoma brucei); assay: filter binding; conditions: Filter binding: 10 mM Tris pH 7.4, 1 mM EDTA, 100 mM NaCl, 100 ug/ml BSA, 30 min, room temperature; 0.05 nM 5S rRNA, 0-300 nM protein; Bmax fixed at 100%
[10] = tested on: P34 RRM1 (Trypanosoma brucei); assay: filter binding; conditions: Filter binding: 10 mM Tris pH 7.4, 1 mM EDTA, 100 mM NaCl, 100 ug/ml BSA, 30 min, room temperature; 0.05 nM 5S rRNA, 0-300 nM protein; Bmax fixed at 100%
[11] = tested on: P34 RRM1-RRM2 (Trypanosoma brucei); assay: filter binding; conditions: Filter binding: 10 mM Tris pH 7.4, 1 mM EDTA, 100 mM NaCl, 100 ug/ml BSA, 30 min, room temperature; 0.05 nM 5S rRNA, 0-300 nM protein; Bmax fixed at 100%
[12] = tested on: P34 Y176A (Trypanosoma brucei); assay: filter binding; conditions: Filter binding: 10 mM Tris pH 7.4, 1 mM EDTA, 100 mM NaCl, 100 ug/ml BSA, 30 min, room temperature; 0.05 nM 5S rRNA, 0-300 nM protein; Bmax fixed at 100%
[13] = target: P34 R91A mutated protein (Trypanosoma brucei); assay: co-IP; immune capture: beads coated with anti-P34/P37 antibody incubated with the recombinant proteins (1 μg each) for 1 hr at 4°C, washed three times in PBS-T, eluted in SDS sample buffer; bound L5 (pellet) detected by western blot with anti-L5 antibody; pellet signal normalised to L5 + P34 FL, set to 1; at least three biological replicates
[14] = target: P34 RRM1 truncate protein (Trypanosoma brucei); assay: as above
[15] = target: P34 R88-91K mutated protein (Trypanosoma brucei); assay: as above
[16] = target: P34 RRM2 truncate protein (Trypanosoma brucei); assay: as above
[17] = target: P34 R91A, Y92A mutated protein (Trypanosoma brucei); assay: as above
[18] = target: P34 N-terminus-RRM2 truncate (P34 lacking the C-terminus) (Trypanosoma brucei); assay: as above
[19] = target: P34 N-terminus-RRM1 truncate (P34 lacking both RRM2 and the C-terminus) (Trypanosoma brucei); assay: as above
[20] = target: P34 RRM1-RRM2 truncate (the RRM domains alone) (Trypanosoma brucei); assay: as above
[21] = target: P34 R88-91A mutated protein (Trypanosoma brucei); assay: as above

Substance: 5S rRNA
- Kd [1]: 103 nM
- Kd [2]: 66 nM
- Kd [3]: 297 nM
- binding signal (fold affinity increase vs WT) [4]: 2
- binding signal (fold affinity increase vs WT) [5]: 2
- binding signal (fold affinity increase vs WT) [6]: 2
- binding signal (fold affinity increase vs WT) [7]: 2
- Kd [8]: 30 nM
- binding signal (fold affinity increase vs WT) [9]: 2
- Kd [10]: 69 nM
- Kd [11]: 67 nM
- binding signal (fold affinity increase vs WT) [12]: 2

Substance: ribosomal protein L5 (natural protein)
- amount of L5 bound relative to P34 WT (set as 1) (relative to P34 WT = 1) [13]: 1.3
- amount of L5 bound relative to P34 full length (set as 1) (relative to P34 full length = 1) [14]: 0.65
- amount of L5 bound relative to P34 WT (set as 1) (relative to P34 WT = 1) [15]: 0.75
- amount of L5 bound relative to P34 full length (set as 1) (relative to P34 full length = 1) [16]: 0.54
- amount of L5 bound relative to P34 WT (set as 1) (relative to P34 WT = 1) [17]: 1.5
- amount of L5 bound relative to P34 full length (set as 1) (relative to P34 full length = 1) [18]: 1.1
- amount of L5 bound relative to P34 full length (set as 1) (relative to P34 full length = 1) [19]: 0.93
- amount of L5 bound relative to P34 full length (set as 1) (relative to P34 full length = 1) [20]: 0.64
- amount of L5 bound relative to P34 WT (set as 1) (relative to P34 WT = 1) [21]: 0.45
